Reference: paper PMC11187062

B1: human DPPA3, residues 81–118 (recombinant) [human] / human UHRF1 PHD finger, residues 299–366 [human] (parent)
chain 1: SRRGVRTLLSVQREKMARLRYMLLGGVRTHERRPTNKE
chain 2: GPSCKHCKDDVNRLCRVCACHLCGGRQDPDKQLMCDECDMAFHIYCLDPPLSSVPSEDEWYCPECRND

Variants of: B1
Assay: ITC
Conditions: with human UHRF1 PHD finger
chain 1 SRRGARTLLSVQREKMARLRYMLLGGVRTHERRPTNKE [chain 1 V5A] was tested, and the Kd was 1610 nM.
